From the RNAGym collection of RNA variant scans (doi:10.7554/elife.90254)

B1: LINE1-full (parent)
chain: UACGUAGGUGGUUUUCCCCUGAUAGUGCUAAGGGGGCCUGGAAGUUUGGACUGGGCAGAGCUCAACACAGCGUGGCAAAGUGGCUGUGGCUAGACUGCCUCUCUGGAUUCCUCGUCACUCAGCAGGGCAUCUCUGAGAGAAAUGCC

Variants of: B1
Assay: self-cleavage, relative activity (ratio to wild type); higher = more cleavage; in vitro, sequencing; the parent is a self-cleaving ribozyme
With UACGUAGGUGGUUUUCCCCUGAUAGUGCUAAGGGGGCCUGGAAGUUUGGACUGGGCAGAGCUCAACACAGGGUGGCGAAGUGGCUGUGGCUAGACUGCCUCUCUGGAUUCCUCGUCACUCAGCAGGGCAUCUCUGAGAGAAAUGCC [C71G A77G] the self-cleavage was 0.4.
Variant UACGUAGGUGGUUUUCCCCUGAUAGUGCUAAGGGGGCCUGGAAGUUUGGACUGGGCAGAGCUCAACACAGGGUGGCAAAGUGGCUGUGGCUAGACUGCCUCUCUGGAUUCCUCGUCACUCAGCAGGGCAUCUCUGAGAGUAAUGCC [C71G A140U] has a self-cleavage of 0.53.
With UACGUAGGUGGUUUUCCCCUGAUAGUGCUAAGGGGGCCUGGAAGUUUGGACUGGGCAGAGCUCAACACAGGGUGGCAAAGAGGCUGUGGCUAGACUGCCUCUCUGGAUUCCUCGUCACUCAGCAGGGCAUCUCUGAGAGAAAUGCC [C71G U81A] the self-cleavage was 0.28.
Work on UACGUAGGUGGUUUUCCCCUGAUAGUGCUAAGGGGGCCUGGAAGUUUGGACUGGGCAGAGCUCAACACAGGGUGGCAAAGCGGCUGUGGCUAGACUGCCUCUCUGGAUUCCUCGUCACUCAGCAGGGCAUCUCUGAGAGAAAUGCC [C71G U81C] yielded a self-cleavage of 0.27.
Work on UACGUAGGUGGUUUUCCCCUGAUAGUGCUAAGGGGGCCUGGAAGUUUGGACUGGGCAGAGCUCAACACAGGGUGGCAAAGUGGCUGUGGCUAGACUGCCUCUCUGGAUUCCCCGUCACUCAGCAGGGCAUCUCUGAGAGAAAUGCC [C71G U112C] yielded a self-cleavage of 0.37.
Work on UACGUAGGUGGUUUUCCCCUGAUAGUGCUAAGGGGGCCUGGAAGUUUGGACUGGGCAGAGCUCAACACAGUGUGGCGAAGUGGCUGUGGCUAGACUGCCUCUCUGGAUUCCUCGUCACUCAGCAGGGCAUCUCUGAGAGAAAUGCC [C71U A77G] yielded a self-cleavage of 0.86.
Variant UACGUAGGUGGUUUUCCCCUGAUAGUGCUAAGGGGGCCUGGAAGUUUGGACUGGGCAGAGCUCAACACAGUGUGGCAGAGUGGCUGUGGCUAGACUGCCUCUCUGGAUUCCUCGUCACUCAGCAGGGCAUCUCUGAGAGAAAUGCC [C71U A78G] has a self-cleavage of 0.41.
Work on UACGUAGGUGGUUUUCCCCUGAUAGUGCUAAGGGGGCCUGGAAGUUUGGACUGGGCAGAGCUCAACACAGUGUGGCAAUGUGGCUGUGGCUAGACUGCCUCUCUGGAUUCCUCGUCACUCAGCAGGGCAUCUCUGAGAGAAAUGCC [C71U A79U] yielded a self-cleavage of 0.74.
Work on UACGUAGGUGGUUUUCCCCUGAUAGUGCUAAGGGGGCCUGGAAGUUUGGACUGGGCAGAGCUCAACACAGUGUGGCAAAGUGGCUGUGGCUGGACUGCCUCUCUGGAUUCCUCGUCACUCAGCAGGGCAUCUCUGAGAGAAAUGCC [C71U A92G] yielded a self-cleavage of 0.06.
UACGUAGGUGGUUUUCCCCUGAUAGUGCUAAGGGGGCCUGGAAGUUUGGACUGGGCAGAGCUCAACACAGUGUGGCAAAGUGGCUGUGGCUAGACUGCCUCUCUGGAUUCCUCGUCUCUCAGCAGGGCAUCUCUGAGAGAAAUGCC [C71U A117U] gave a self-cleavage of 0.98.
Work on UACGUAGGUGGUUUUCCCCUGAUAGUGCUAAGGGGGCCUGGAAGUUUGGACUGGGCAGAGCUCAACACAGUGUGGCAAAGUGGCUGUGGCUAGACUGCCUCUCUGGAUUCCUCGUCACUCUGCAGGGCAUCUCUGAGAGAAAUGCC [C71U A121U] yielded a self-cleavage of 0.93.
Variant UACGUAGGUGGUUUUCCCCUGAUAGUGCUAAGGGGGCCUGGAAGUUUGGACUGGGCAGAGCUCAACACAGUGUGGCAAAGUGGCUGUGGCUAGACUGCCUCUCUGGAUUCCUCGUCACUCAGCAGGGCAUCUCUGAGUGAAAUGCC [C71U A138U] has a self-cleavage of 1.04.
UACGUAGGUGGUUUUCCCCUGAUAGUGCUAAGGGGGCCUGGAAGUUUGGACUGGGCAGAGCUCAACACAGUGUGGCAAAGUGGCUGUGGCUAGACUGCCUCUCUGGAUUCCUCGUCACUCAGCAGGGCAUCUCUGAGAGGAAUGCC [C71U A140G] gave a self-cleavage of 0.9.
With UACGUAGGUGGUUUUCCCCUGAUAGUGCUAAGGGGGCCUGGAAGUUUGGACUGGGCAGAGCUCAACACAGUGUGGUAAAGUGGCUGUGGCUAGACUGCCUCUCUGGAUUCCUCGUCACUCAGCAGGGCAUCUCUGAGAGAAAUGCC [C71U C76U] the self-cleavage was 1.15.
Work on UACGUAGGUGGUUUUCCCCUGAUAGUGCUAAGGGGGCCUGGAAGUUUGGACUGGGCAGAGCUCAACACAGUGUGGCAAAGUGGCUGUGGAUAGACUGCCUCUCUGGAUUCCUCGUCACUCAGCAGGGCAUCUCUGAGAGAAAUGCC [C71U C90A] yielded a self-cleavage of 0.04.
Variant UACGUAGGUGGUUUUCCCCUGAUAGUGCUAAGGGGGCCUGGAAGUUUGGACUGGGCAGAGCUCAACACAGUGUGGCAAAGUGGCUGUGGCUAGACUGCGUCUCUGGAUUCCUCGUCACUCAGCAGGGCAUCUCUGAGAGAAAUGCC [C71U C99G] has a self-cleavage of 0.12.
Work on UACGUAGGUGGUUUUCCCCUGAUAGUGCUAAGGGGGCCUGGAAGUUUGGACUGGGCAGAGCUCAACACAGUGUGGCAAAGUGGCUGUGGCUAGACUGCCUCUCUGGAUUCUUCGUCACUCAGCAGGGCAUCUCUGAGAGAAAUGCC [C71U C111U] yielded a self-cleavage of 0.82.
UACGUAGGUGGUUUUCCCCUGAUAGUGCUAAGGGGGCCUGGAAGUUUGGACUGGGCAGAGCUCAACACAGUGUGGCAAAGUGGCUGUGGCUAGACUGCCUCUCUGGAUUCCUCGUCACUUAGCAGGGCAUCUCUGAGAGAAAUGCC [C71U C120U] showed a self-cleavage of 2.76.
UACGUAGGUGGUUUUCCCCUGAUAGUGCUAAGGGGGCCUGGAAGUUUGGACUGGGCAGAGCUCAACACAGUGUGACAAAGUGGCUGUGGCUAGACUGCCUCUCUGGAUUCCUCGUCACUCAGCAGGGCAUCUCUGAGAGAAAUGCC [C71U G75A] showed a self-cleavage of 0.59.
Work on UACGUAGGUGGUUUUCCCCUGAUAGUGCUAAGGGGGCCUGGAAGUUUGGACUGGGCAGAGCUCAACACAGUGUGGCAAAGUGGCUGCGGCUAGACUGCCUCUCUGGAUUCCUCGUCACUCAGCAGGGCAUCUCUGAGAGAAAUGCC [C71U U87C] yielded a self-cleavage of 0.04.
For UACGUAGGUGGUUUUCCCCUGAUAGUGCUAAGGGGGCCUGGAAGUUUGGACUGGGCAGAGCUCAACACAGUGUGGCAAAGUGGCUGUGGCUAGACAGCCUCUCUGGAUUCCUCGUCACUCAGCAGGGCAUCUCUGAGAGAAAUGCC [C71U U96A], the self-cleavage was 0.04.
UACGUAGGUGGUUUUCCCCUGAUAGUGCUAAGGGGGCCUGGAAGUUUGGACUGGGCAGAGCUCAACACAGUGUGGCAAAGUGGCUGUGGCUAGACCGCCUCUCUGGAUUCCUCGUCACUCAGCAGGGCAUCUCUGAGAGAAAUGCC [C71U U96C] gave a self-cleavage of 0.05.
UACGUAGGUGGUUUUCCCCUGAUAGUGCUAAGGGGGCCUGGAAGUUUGGACUGGGCAGAGCUCAACACAGUGUGGCAAAGUGGCUGUGGCUAGACUGCCUCUCUGGAUUCCUCGCCACUCAGCAGGGCAUCUCUGAGAGAAAUGCC [C71U U115C] showed a self-cleavage of 1.12.
With UACGUAGGUGGUUUUCCCCUGAUAGUGCUAAGGGGGCCUGGAAGUUUGGACUGGGCAGAGCUCAACACAGUGUGGCAAAGUGGCUGUGGCUAGACUGCCUCUCUGGAUUCCUCGGCACUCAGCAGGGCAUCUCUGAGAGAAAUGCC [C71U U115G] the self-cleavage was 1.23.
For UACGUAGGUGGUUUUCCCCUGAUAGUGCUAAGGGGGCCUGGAAGUUUGGACUGGGCAGAGCUCAACACAGUGUGGCAAAGUGGCUGUGGCUAGACUGCCUCUCUGGAUUCCUCGUCACUCAGCAGGGCACCUCUGAGAGAAAUGCC [C71U U130C], the self-cleavage was 1.
UACGUAGGUGGUUUUCCCCUGAUAGUGCUAAGGGGGCCUGGAAGUUUGGACUGGGCAGAGCUCAACACAGUGUGGCAAAGUGGCUGUGGCUAGACUGCCUCUCUGGAUUCCUCGUCACUCAGCAGGGCAUCCCUGAGAGAAAUGCC [C71U U132C] gave a self-cleavage of 1.05.
Variant UACGUAGGUGGUUUUCCCCUGAUAGUGCUAAGGGGGCCUGGAAGUUUGGACUGGGCAGAGCUCAACACAGUGUGGCAAAGUGGCUGUGGCUAGACUGCCUCUCUGGAUUCCUCGUCACUCAGCAGGGCAUCUCUGAGAGAAACGCC [C71U U143C] has a self-cleavage of 0.64.
With UACGUAGGUGGUUUUCCCCUGAUAGUGCUAAGGGGGCCUGGAAGUUUGGACUGGGCAGAGCUCAACACAGCAUGGCAAAGUGGCUGUGGCUAGACUGCCUCUCUGGAUUCCUCGUCACUCAGCAGGGCAUCUCUGAGAGAAAUGCC [G72A] the self-cleavage was 1.3.
For UACGUAGGUGGUUUUCCCCUGAUAGUGCUAAGGGGGCCUGGAAGUUUGGACUGGGCAGAGCUCAACACAGCAUGGCUAAGUGGCUGUGGCUAGACUGCCUCUCUGGAUUCCUCGUCACUCAGCAGGGCAUCUCUGAGAGAAAUGCC [G72A A77U], the self-cleavage was 1.44.
With UACGUAGGUGGUUUUCCCCUGAUAGUGCUAAGGGGGCCUGGAAGUUUGGACUGGGCAGAGCUCAACACAGCAUGGCAGAGUGGCUGUGGCUAGACUGCCUCUCUGGAUUCCUCGUCACUCAGCAGGGCAUCUCUGAGAGAAAUGCC [G72A A78G] the self-cleavage was 1.14.
Work on UACGUAGGUGGUUUUCCCCUGAUAGUGCUAAGGGGGCCUGGAAGUUUGGACUGGGCAGAGCUCAACACAGCAUGGCAUAGUGGCUGUGGCUAGACUGCCUCUCUGGAUUCCUCGUCACUCAGCAGGGCAUCUCUGAGAGAAAUGCC [G72A A78U] yielded a self-cleavage of 1.81.
UACGUAGGUGGUUUUCCCCUGAUAGUGCUAAGGGGGCCUGGAAGUUUGGACUGGGCAGAGCUCAACACAGCAUGGCAAAGUGGCUGUGGCUAGUCUGCCUCUCUGGAUUCCUCGUCACUCAGCAGGGCAUCUCUGAGAGAAAUGCC [G72A A94U] gave a self-cleavage of 0.06.
UACGUAGGUGGUUUUCCCCUGAUAGUGCUAAGGGGGCCUGGAAGUUUGGACUGGGCAGAGCUCAACACAGCAUGGCAAAGUGGCUGUGGCUAGACUGCCUCUCUGGAUUCCUCGUCUCUCAGCAGGGCAUCUCUGAGAGAAAUGCC [G72A A117U] gave a self-cleavage of 1.54.
UACGUAGGUGGUUUUCCCCUGAUAGUGCUAAGGGGGCCUGGAAGUUUGGACUGGGCAGAGCUCAACACAGCAUGGCAAAGUGGCUGUGGGUAGACUGCCUCUCUGGAUUCCUCGUCACUCAGCAGGGCAUCUCUGAGAGAAAUGCC [G72A C90G] gave a self-cleavage of 0.03.
In the case of UACGUAGGUGGUUUUCCCCUGAUAGUGCUAAGGGGGCCUGGAAGUUUGGACUGGGCAGAGCUCAACACAGCAUGGCAAAGUGGCUGUAGCUAGACUGCCUCUCUGGAUUCCUCGUCACUCAGCAGGGCAUCUCUGAGAGAAAUGCC [G72A G88A], the self-cleavage is reported as 0.03.
With UACGUAGGUGGUUUUCCCCUGAUAGUGCUAAGGGGGCCUGGAAGUUUGGACUGGGCAGAGCUCAACACAGCAUGGCAAAGUGGCUGUGGCUAGACUGCCUCUCUGGAUUCCUCGUCACUCAACAGGGCAUCUCUGAGAGAAAUGCC [G72A G122A] the self-cleavage was 1.6.
UACGUAGGUGGUUUUCCCCUGAUAGUGCUAAGGGGGCCUGGAAGUUUGGACUGGGCAGAGCUCAACACAGCAUGGCAAAGUGGCUGUGGCUAGACUGCCUCUCUGGAUUCCUCGUCACUCAGCAGGGCAUCUCUGAAAGAAAUGCC [G72A G137A] showed a self-cleavage of 0.46.
Work on UACGUAGGUGGUUUUCCCCUGAUAGUGCUAAGGGGGCCUGGAAGUUUGGACUGGGCAGAGCUCAACACAGCAUGGCAAAGUGGCCGUGGCUAGACUGCCUCUCUGGAUUCCUCGUCACUCAGCAGGGCAUCUCUGAGAGAAAUGCC [G72A U85C] yielded a self-cleavage of 0.08.
UACGUAGGUGGUUUUCCCCUGAUAGUGCUAAGGGGGCCUGGAAGUUUGGACUGGGCAGAGCUCAACACAGCAUGGCAAAGUGGCUGCGGCUAGACUGCCUCUCUGGAUUCCUCGUCACUCAGCAGGGCAUCUCUGAGAGAAAUGCC [G72A U87C] showed a self-cleavage of 0.25.
